Reference: the supplement of paper PMC9112550, “Optimization of the antimicrobial peptide Bac7 by deep mutational scanning” (BMC Biology, 2022)

System: Escherichia coli TOP10
Experiment: shrunken log2 fold change of peptide-encoding DNA abundance (4.5 h post-induction vs induction); higher = less antimicrobial activity (less host growth inhibition)
Details: time post-induction: 4.5 h; library: site-saturation at positions 5, 18, 19, 20
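Also: peptides expressed intracellularly from a pBAD plasmid library in pooled LB shake-flask culture, induced with 0.3% L-arabinose, DNA abundance read by NGS, three biological replicates, DESeq2 with apeglm shrinkage.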

Sequence	shrunken log2 fold change
RRIRFRPPRLPRPRPRPDPWPRP	0.0822
RRIRRRPPRLPRPRPRPPGRPRP	1.52
RRIRMRPPRLPRPRPRPYEPPRP	-0.352
RRIRGRPPRLPRPRPRPWFKPRP	-0.824
RRIRCRPPRLPRPRPRPYSCPRP	-0.833
RRIRIRPPRLPRPRPRPDQAPRP	-0.002
RRIRCRPPRLPRPRPRPDNKPRP	-0.795
RRIRSRPPRLPRPRPRPYMCPRP	-0.903
RRIRQRPPRLPRPRPRPHIWPRP	-0.333
RRIRTRPPRLPRPRPRPKIMPRP	-0.519
RRIRSRPPRLPRPRPRPVGVPRP	0.0685
RRIRKRPPRLPRPRPRPPHDPRP	0.559
RRIRWRPPRLPRPRPRPLQYPRP	-0.133
RRIRSRPPRLPRPRPRPRFYPRP	-0.642
RRIRHRPPRLPRPRPRPYAFPRP	0.0613
RRIRYRPPRLPRPRPRPYKDPRP	-0.748
RRIRMRPPRLPRPRPRPIMEPRP	-0.00133
RRIRLRPPRLPRPRPRPKHEPRP	0.053
RRIRHRPPRLPRPRPRPINLPRP	-0.0477
RRIRFRPPRLPRPRPRPDELPRP	0.0112
RRIRRRPPRLPRPRPRPDWQPRP	0.399
RRIRRRPPRLPRPRPRPIDSPRP	-0.0316
RRIRSRPPRLPRPRPRPYLWPRP	-0.0115
RRIRNRPPRLPRPRPRPAWPPRP	0.408
RRIRCRPPRLPRPRPRPTECPRP	-0.168

Sequence	shrunken log2 fold change
RRIRWRPPRLPRPRPRPDAKPRP	0.0403
RRIRDRPPRLPRPRPRPFWGPRP	0.127
RRIRGRPPRLPRPRPRPQIVPRP	0.12
RRIRFRPPRLPRPRPRPTFNPRP	-0.279
RRIRFRPPRLPRPRPRPDNYPRP	-0.12
RRIRNRPPRLPRPRPRPTNDPRP	0.0554
RRIRKRPPRLPRPRPRPECAPRP	0.339
RRIRERPPRLPRPRPRPVHKPRP	-0.581
RRIRVRPPRLPRPRPRPEALPRP	-0.00459
RRIRTRPPRLPRPRPRPSMFPRP	-0.46
RRIRYRPPRLPRPRPRPFLDPRP	-0.00748
RRIRNRPPRLPRPRPRPSHQPRP	-0.374
RRIRTRPPRLPRPRPRPMQAPRP	-0.0247
RRIRIRPPRLPRPRPRPGSGPRP	0.166
RRIRTRPPRLPRPRPRPIAYPRP	0.0173
RRIRYRPPRLPRPRPRPGGRPRP	-0.019
RRIRHRPPRLPRPRPRPDTEPRP	-0.172
RRIRMRPPRLPRPRPRPLAGPRP	0.468
RRIRNRPPRLPRPRPRPKNHPRP	-0.19
RRIRWRPPRLPRPRPRPFMIPRP	-0.798
RRIRNRPPRLPRPRPRPSFNPRP	-0.143
RRIRYRPPRLPRPRPRPVELPRP	-0.151
RRIRGRPPRLPRPRPRPQRNPRP	0.473
RRIRMRPPRLPRPRPRPFHGPRP	-0.128
RRIRMRPPRLPRPRPRPFWSPRP	-0.123

Sequence	shrunken log2 fold change
RRIRMRPPRLPRPRPRPKHVPRP	0.0503
RRIRHRPPRLPRPRPRPWSKPRP	-0.301
RRIRARPPRLPRPRPRPLHPPRP	0.256
RRIRCRPPRLPRPRPRPLYYPRP	-1.03
RRIRFRPPRLPRPRPRPFMGPRP	-0.348
RRIRPRPPRLPRPRPRPLCYPRP	-0.488
RRIRFRPPRLPRPRPRPKLTPRP	-0.069
RRIRPRPPRLPRPRPRPSSKPRP	-0.217
RRIRCRPPRLPRPRPRPWVWPRP	-0.00389
RRIRVRPPRLPRPRPRPQIMPRP	-0.745
RRIRYRPPRLPRPRPRPPYFPRP	-0.262
RRIRARPPRLPRPRPRPGVDPRP	0.664
RRIRTRPPRLPRPRPRPGKWPRP	-0.192
RRIRMRPPRLPRPRPRPLVTPRP	-0.107
RRIRTRPPRLPRPRPRPFYSPRP	-0.701
RRIRRRPPRLPRPRPRPQNDPRP	-0.212
RRIRWRPPRLPRPRPRPGPAPRP	1.65
RRIRQRPPRLPRPRPRPDLNPRP	0.0947
RRIRLRPPRLPRPRPRPAYSPRP	-0.354
RRIRLRPPRLPRPRPRPPAPPRP	0.789
RRIRHRPPRLPRPRPRPRFQPRP	0.00482
RRIRHRPPRLPRPRPRPICQPRP	-0.113
RRIRMRPPRLPRPRPRPQVPPRP	-0.0842
RRIRPRPPRLPRPRPRPHFEPRP	0.0605
RRIRSRPPRLPRPRPRPRDCPRP	0.686

Sequence	shrunken log2 fold change
RRIRRRPPRLPRPRPRPPLCPRP	0.971
RRIRNRPPRLPRPRPRPWLAPRP	-0.254
RRIRCRPPRLPRPRPRPIKSPRP	-0.185
RRIRSRPPRLPRPRPRPYPQPRP	-0.267
RRIRQRPPRLPRPRPRPMRHPRP	2.84
RRIRYRPPRLPRPRPRPWFKPRP	-0.12
RRIRCRPPRLPRPRPRPNCEPRP	0.223
RRIRKRPPRLPRPRPRPIQTPRP	0.0355
RRIRRRPPRLPRPRPRPHDFPRP	0.103
RRIRPRPPRLPRPRPRPQMIPRP	-0.594
RRIRNRPPRLPRPRPRPAGQPRP	0.0891
RRIRTRPPRLPRPRPRPQQGPRP	-0.238
RRIRGRPPRLPRPRPRPPSEPRP	0.856
RRIRIRPPRLPRPRPRPWIPPRP	-0.562
RRIRPRPPRLPRPRPRPKYHPRP	-0.317
RRIRTRPPRLPRPRPRPNSLPRP	0.0607
RRIRQRPPRLPRPRPRPTFKPRP	-0.225
RRIRHRPPRLPRPRPRPDKYPRP	-0.146
RRIRYRPPRLPRPRPRPVHAPRP	-0.13
RRIRWRPPRLPRPRPRPRTPPRP	0.559
RRIRERPPRLPRPRPRPGWMPRP	0.144
RRIRRRPPRLPRPRPRPTRFPRP	1.08
RRIRWRPPRLPRPRPRPTTRPRP	0.672
RRIRQRPPRLPRPRPRPMTVPRP	-0.00149
RRIRMRPPRLPRPRPRPITSPRP	0.0639

Sequence	shrunken log2 fold change
RRIRWRPPRLPRPRPRPAIQPRP	0.0853
RRIRNRPPRLPRPRPRPTESPRP	-0.0455
RRIRPRPPRLPRPRPRPYHHPRP	-0.655
RRIRWRPPRLPRPRPRPHLPPRP	-0.166
RRIRNRPPRLPRPRPRPYTHPRP	-1.12
RRIRERPPRLPRPRPRPYMSPRP	-0.0135
RRIRFRPPRLPRPRPRPFYFPRP	-0.681
RRIRARPPRLPRPRPRPGMCPRP	0.494
RRIRGRPPRLPRPRPRPNWCPRP	-0.0123
RRIRLRPPRLPRPRPRPDWFPRP	-0.173
RRIRFRPPRLPRPRPRPNAGPRP	-0.0253
RRIRNRPPRLPRPRPRPCKPPRP	-0.0414
RRIRNRPPRLPRPRPRPQWHPRP	-0.481
RRIRLRPPRLPRPRPRPHLDPRP	-0.0911
RRIRPRPPRLPRPRPRPETPPRP	0.152
RRIRLRPPRLPRPRPRPPYIPRP	-0.081
RRIRGRPPRLPRPRPRPNWFPRP	0.469
RRIRARPPRLPRPRPRPHADPRP	0.981
RRIRFRPPRLPRPRPRPAATPRP	0.372
RRIRKRPPRLPRPRPRPQYPPRP	0.131
RRIRRRPPRLPRPRPRPTPDPRP	0.72
RRIRGRPPRLPRPRPRPDQRPRP	0.55
RRIRWRPPRLPRPRPRPQCLPRP	-0.073
RRIRQRPPRLPRPRPRPMGSPRP	-0.0869
RRIRPRPPRLPRPRPRPMHLPRP	-0.034

Sequence	shrunken log2 fold change
RRIRARPPRLPRPRPRPPSKPRP	0.491
RRIRNRPPRLPRPRPRPTRPPRP	0.663
RRIRYRPPRLPRPRPRPVLQPRP	-0.297
RRIRPRPPRLPRPRPRPSHLPRP	-0.168
RRIRHRPPRLPRPRPRPAGMPRP	-0.411
RRIRDRPPRLPRPRPRPHTPPRP	0.0203
RRIRFRPPRLPRPRPRPDDPPRP	0.212
RRIRCRPPRLPRPRPRPLSRPRP	-0.143
RRIRARPPRLPRPRPRPQQPPRP	0.0738
RRIRLRPPRLPRPRPRPPIQPRP	0.174
RRIRYRPPRLPRPRPRPACTPRP	-0.292
RRIRARPPRLPRPRPRPWNCPRP	0.132
RRIRARPPRLPRPRPRPQRLPRP	0.247
RRIRYRPPRLPRPRPRPASRPRP	-0.0366
RRIRKRPPRLPRPRPRPFNNPRP	-0.0235
RRIRPRPPRLPRPRPRPQWTPRP	-0.0535
RRIRCRPPRLPRPRPRPTHMPRP	-0.173
RRIRWRPPRLPRPRPRPRMLPRP	0.281
RRIRHRPPRLPRPRPRPWNCPRP	-0.366
RRIRCRPPRLPRPRPRPITHPRP	-0.158
RRIRYRPPRLPRPRPRPTCMPRP	-0.156
RRIRWRPPRLPRPRPRPPRRPRP	0.642
RRIRHRPPRLPRPRPRPGNSPRP	0.0912
RRIRWRPPRLPRPRPRPDSFPRP	0.00192
RRIRQRPPRLPRPRPRPWSDPRP	-0.276
